Experiment: soluble on expression in E. coli; label from the status in PepcDB or PDB records

| Sequence | soluble on expression in E. coli |
| --- | --- |
| MGGSHHHHHHGMASETGPEDPSSMPEESSPRRTPQSIPYQDLPHLVNADGQYLFCRYWKPTGTPKALIFVSHGAGEHSGRYEELARMLMGLDLLVFAHDHVGHGQSEGERMVVSDFHVFVRDVLQHVDSMQKDYPGLPVFLLGHSMGGAIAILTAAERPGHFAGMVLISPLVLANPESATTFKVLAAKVLNLVLPNLSLGPIDSSVLSRNKTEVDIYNSDPLICRAGLKVCFGIQLLNAVSRVERALPKLTVPFLLLQGSADRLCDSKGAYLLMELAKSQDKTLKIYEGAYHVLHKELPEVTNSVFHEINMWVSQRTATAGTASPP | not soluble |
| MAHHHHHHMSLNLAEAADERSQREMEKYLVERVAGQGTFGTVQLAREKNTGVNVAIKKVIQDPRFKNRELQIMQDLSRLRHPNIVLLKNYFYTVLGDHRHNDVYLNVVMEFVPDTLHRVCRAYYRRLASPPMILVKVFMYQLLRGIACLHLPAVNVCHRDIKPHNVLVDESTGDLKLCDFGSAKKLSPSEPNVAYICSRYYRAPELIFGNQYYSTAVDVWSVGCIFAEMLLGEPIFCGENTSGQLREIVRVLGRPSREELHKLSTSNVELNVPTNKSTPWEDVFKRPLPAEVYDLCAKIFKYLPEQRITPLEAICHPFFDELHDATVKLPSGNALPAHLFTFLPEEINEMTEAQRSQLVQK | soluble |
| MAHHHHHHMRMRPFTASTAATPTAAGAAPASSMSSPAPLRKARESATGSAGSYFLGSSTFSVYEEMARQLREEGWRRKTEAAIATADFILGDRFRIPYTLLRVERMARSSWFGGTRWVNYFEGSHRLTLKAAMVQLMKEVDTHWATWLPESYAVGGDQLKKADERRALLEALAAAGDDDAVWIVKPSSGAKGRHILLLRASAVPEWLERLPESSKSMYVVQRYVDRPLLLSNGRKFDIRVWALLVSPYSIYAYTQVSCRTASEPYDLSDITNTHVHLTNHCLQKDAAHFGEYEEENEMWLPQLQSYLTSIGKPADLLETRVLPAIKELLVRTLLAVMPEMAVPATEAYKCFQLFGYDMILTEEADVRLLEINGSPGVAERFLTPLVRSMRELLGAGPKDGTGSTTTTRNCDNTSHEGFSENGSSSNSGCASPTSASSSCPGRRRTSHAFSAATSATGATRNWRLEDEGFVLLWRRGDAVPPGLVDVC | not soluble |
| HHHHHHGSQEAPHFKPGEDPRQPHQEWKLIENMSDEFEGKKIDEKKWQISGQGWIGRAPGLFLAENISLNNGSLQITTTMLPEPIVKNNKTYTHGGGYVGSRNGMTYGYYECEMKANKTFMSSTFWLINEGKDRLGCDKRTTELDIQESVGQITNDADWMKYFDQTMNSNTHSRNIPEGCEYEKGSSKGKAELGGKAYEDFHVYGVWWKSKDEIIFFLDGKMQSKVTPPADFDIEMYLRMVVETYDWNPVPKDGGMTGSKEDRTTTYNWVRSWQLVDSKN | soluble |
| MKVAGTSAPPETAPAASRPGLRELKKQRTRDLLLRSALELFTERGYEETTVDDIAEAADVSQRTFFRYFASKEDAAFFVARLAESHFVRAVLARPPEEAPLDALRRALAESWSTIGEAVEQLVPLELHMRFYRVIESTPALLAAHLRRATELEEEIARVVAVREGLDVDTDPRPRVIVAVFGAVMRVTERIWSARDDASLAALRDLTADYLDQVAPALTGNWRRAET | soluble |
| MSLSQTTNIKEQTDTGLAPPAPAITTNSAAIEEQANSSIRKLYHTLNTMPNTSMADRISQISAYFKGTKYILGSLGEGPNARYDQFPRYRVDGFDCDTYVNTVLSLALANSLESFQECLKHTRYKNGKRSYINRNHFTSIDWNNYNQKRGLLKDITFSIRNEKKQPVALYANALINKPQWYNHKTIDTIRLQKQDKNEQEKRLVELKAKGKTLETSLSNVPYIPFTALFSENKPNLHLFSQIPNGAVIEIIRPNWDLRQQIGTELDISHLGFAIWINNELFFRQASSQYGKVVDVSLIDYLDKARSSPTIKGINIQVVLPEKPVSNGCQLFDIREGHHHHHH | soluble |
| MSLSKHSHYKDKKKFYKKVEQFKEFQERISVHFQNEKLLYQAFTHSSYVNEHRKKPYEDNERLEFLGDAVLELTISRFLFAKYPAMSEGDLTKLRAAIVCEPSLVSLAHELSFGDLVLLGKGEEMTGGRKRPALLADVFEAFIGALYLDQGLEPVESFLKVYVFPKINDGAFSHVMDFKSQLQEYVQRDGKGSLEYKISNEKGPAHNREFEAIVSLKGEPLGVGNGRSKKEAEQHAAQEALAKLQKHHTKQEGGSHHHHHH | soluble |
| MNFENDDIIHAPTTSSLILEERHDSELFRVYALILDGITDQVLLPGKKLTESELCRQMVCSRNTVRGALSLLAHDKIVDLQPNRGAFVHVPDLKEMQDVFNARIEMETMILNILADLPDLETRLKPLYAMIRREEEASGRGDRVGWNRLSNAFHVELARLVGNDVLFDIMNTLCARSSLIVAVAGVHREEKHAINTHTHSEHREILDLLLAGRRNRVVKILRRHLGNCMERLEKTLED | not soluble |
| MLSHETIWSAIDTLAERHQLTPSALAKRAGLDPTSFNKSKRFGPDGRKRWPSTESVSKVLEATGASVDQFFGYAFGRAQTMQPSGADNAIPLLGFAQAGSGGFFDDGGFPAGQGWDVVEFPSSPERKQGVYALEVQGESMMPLYRDGDILIVEPGAPVRRGDRVVLKSRDGEVMAKVLARQSPKNIELLSLNPEHPNRSFDMADVEWIARIIWASQ | not soluble |
| MAEKLGPEKRHAFVHNGQKVFEWDQTLEEVNMYIELPKGVPTKLFHCAIQATHVEVGIRGNPPYLNFYICGSYFLYELSIQFSEQFDEWTPSSEDGEMHITLQKREKGKTWSSPIQGQGSLDPYAADQEQKRLMLQRFQEENPGFDFSQAQFTGTCPDPRTFMGGIRSD | soluble |
| EPEEEQITVLENGSWLIDGDTPVNKLKYVLSVDSFPGEEQGYYLTIAGLIMYILQRIPKTGDHMEFNGLRYEVVDMDGIRIDKVMVTKVP | soluble |
| MGSDKIHHHHHHMVIAVRRILIREEYCMGCKLCEINCVAAQVGTGNLIKVYRYVPELPEPNVIVEEHDYVTFALQCRNCDDPSCLKACMTGAMHRDPKTGAIRVNQEKCVGCWMCVMACPFGVIRRNTKEKKVASKCDLCADRGTPGCVEGCPNEALVLVEVRE | not soluble |
| MSLSRIIMLIPTGTSVGLTSVSLGVIRAMERKGVRLSVFKPIAQPRTGGDAPDQTTTIVRANSSTTTAAEPLKMSYVEGLLSSNQKDVLMEEIVANYHANTKDAEVVLVEGLVPTRKHQFAQSLNYEIAKTLNAEIVFVMSQGTDTPEQLKERIELTRNSFGGAKNTNITGVIVNKLNAPVDEQGRTRPDLSEIFDDSSKAKVNNVDPAKLQESSPLPVLGAVPWSFDLIATRAIDMARHLNATIINEGDINTRRVKSVTFCARSIPHMLEHFRAGSLLVTSADRPDVLVAACLAAMNGVEIGALLLTGGYEMDARISKLCERAFATGLPVFMVNTNTWQTSLSLQSFNLEVPVDDHERIEKVQEYVANYINADWIDSLTATSERSRRLSPPAFRYQLTELARKAGKRIVLPEGDEPRTVKAAAICAERGIATCVLLGNPAEINRVAASQGVELGAGIEIVDPEVVRESYVGRLVELRKNKGMTETVAREQLEDNVVLGTLMLEQDEVDGLVSGAVHTTANTIRPPLQLIKTAPGSSLVSSVFFMLLPEQVYVYGDCAINPDPTAEQLAEIAIQSADSAAAFGIEPRVAMLSYSTGTSGAGSDVEKVREATRLAQEKRPDLMIDGPLQYDAAVMADVAKSKAPNSPVAGRATVFIFPDLNTGNTTYKAVQRSADLISIGPMLQGMRKPVNDLSRGALVDDIVYTIALTAIQSAQQQEGHHHHHH | not soluble |
| MPIEIERRFLIGNDNWRQYADEPLLLRQGYLSVEKERTVRVRIAGKQAWLTLKGYISEISRSEFEYEIPLADAEKMMETMCPFKMEKWRYPVRWGGSLFEIDVFLGDNAPLVVAEIELPDENADFDRPDWLGREITADGMFTNAYLSRHPFSSWKNAV | not soluble |
| MKKLEVKDLKENFFEAIGKEWMLVTAGTKEKFNTMTASWGGIGWLWNKPVAFVFVRPERYTYEFIEKSDYLTLSFLGEANKKIHAVCGSKSGRDTDKVKATGLKPVFTEQGNVLFEQARLSLEGRKLYADNIKPECFLDKESLEKWYDDAHGGFHKMYIVEIENIWEGD | not soluble |
| VDNVFIVGHRKLDMDALGSAVGMQFFAGNIIENSFAVYNPDEMSPDIERAIERLQADGKTRLISVSQAMGLVTPRSLLVMVDHSKISLTLSKEFYEQFQNVIVVDHHRRDDDFPDNAILTFIESGASSAAELVTELIQFQNAKKCLNKIQASVLMAGIMLDTKNFSTRVTSRTFDVASYLRSKGSDSVEIQNISATD | not soluble |

Source: the DeepSol protein solubility set
